Assay results from patent US11260115B1, “Peptides and combination of peptides for use in immunotherapy against CLL and other cancers” (immatics biotechnologies GmbH, priority 2015, dated 2022).

target: HLA-A*02:01 (Homo sapiens, UniProt P04439, D140Y/D185E/D98H/E176V/E277Q/G131W/G231S/I119V/I121R/I166T/I218V/L300P/L318F/N151K/N90K/P208A/P217A/Q86G/Q94H/R138H/R169H/T345S); assay: MHC binding assay (UV-ligand exchange, β2m ELISA, peptide exchange yield); settings: binding to HLA-A*02:01
Text: Candidate peptides for T cell based therapies according to the present invention were further tested for their MHC binding capacity (affinity). The individual peptide-MHC complexes were produced by UV-ligand exchange, where a UV-sensitive peptide is cleaved upon UV-irradiation, and exchanged with the peptide of interest as analyzed. Only peptide candidates that can effectively bind and stabilize the peptide-receptive MHC molecules prevent dissociation of the MHC complexes. To determine the yield of the exchange reaction, an ELISA was performed based on the detection of the light chain (β2m) of stabilized MHC complexes. The assay was performed as generally described in Rodenko et al. (Rodenko et al., 2006).
96 well MAXISorp plates (NUNC) were coated over night with 2 ug/ml streptavidin in PBS at room temperature, washed 4× and blocked for 1 h at 37° C. in 2% BSA containing blocking buffer. Refolded HLA-A*02:01/MLA-001 monomers served as standards, covering the range of 15-500 ng/ml. Peptide-MHC monomers of the UV-exchange reaction were diluted 100 fold in blocking buffer. Samples were incubated for 1 h at 37° C., washed four times, incubated with 2 ug/ml HRP conjugated anti-β2m for 1 h at 37° C., washed again and detected with TMB solution that is stopped with […]. Absorption was measured at 450 nm. Candidate peptides that show a high exchange yield (preferably higher than 50%, most preferred higher than 75%) are generally preferred for a generation and production of antibodies or fragments thereof, and/or T cell receptors or fragments thereof, as they show sufficient avidity to the MHC molecules and prevent dissociation of the MHC complexes.
Table 11: MHC class I binding scores. Binding of HLA-class I restricted peptides to HLA-A*02:01 was ranged by peptide exchange yield: ≥10%=+; ≥20%=++; ≥50=+++; ≥75%=++++

Substance	Peptide Exchange (MHC class I binding score, peptide exchange yield)
64 (KLLESVASA; listed as Homo sapiens) [compound 64]	“+++” (>50 = +++)
65 (GLDDMKANL; listed as Homo sapiens) [compound 65]	“++” (>20% = ++)
66 (SLAGGLDDMKA; listed as Homo sapiens) [compound 66]	“+++” (>50 = +++)
67 (GLDDVTVEV; listed as Homo sapiens) [compound 67]	“++” (>20% = ++)
68 (GLDQQFAGLDL; listed as Homo sapiens) [compound 68]	“+” (>10% = +)
70 (FVPDTPVGV; listed as Homo sapiens) [compound 70]	“+++” (>50 = +++)
71 (GLKHDIARV; listed as Homo sapiens) [compound 71]	“+++” (>50 = +++)
72 (GLLDAGKMYV; listed as Homo sapiens) [compound 72]	“+++” (>50 = +++)
73 (GLLEVISALQL; listed as Homo sapiens) [compound 73]	“+++” (>50 = +++)
74 (GLLRASFLL; listed as Homo sapiens) [compound 74]	“++” (>20% = ++)
75 (GLSIFAQDLRL; listed as Homo sapiens) [compound 75]	“++” (>20% = ++)
76 (GLLRIIPYL; listed as Homo sapiens) [compound 76]	“+++” (>50 = +++)
78 (GLPSFLTEV; listed as Homo sapiens) [compound 78]	“+++” (>50 = +++)
79 (GLQAKIQEA; listed as Homo sapiens) [compound 79]	“+++” (>50 = +++)
80 (VLIEDELEEL; listed as Homo sapiens) [compound 80]	“++” (>20% = ++)
82 (GLQSGVDIGV; listed as Homo sapiens) [compound 82]	“+++” (>50 = +++)
83 (GQGEVLVYV; listed as Homo sapiens) [compound 83]	“+++” (>50 = +++)
84 (GVMDVNTAL; listed as Homo sapiens) [compound 84]	“++” (>20% = ++)
85 (HLMLHTAAL; listed as Homo sapiens) [compound 85]	“++++” (>75% = ++++)

Substance	Peptide Exchange (MHC class I binding score, peptide exchange yield)
87 (HQIEAVDGEEL; listed as Homo sapiens) [compound 87]	“++” (>20% = ++)
88 (ILDEIGADVQA; listed as Homo sapiens) [compound 88]	“+++” (>50 = +++)
89 (ILDFGTFQL; listed as Homo sapiens) [compound 89]	“+++” (>50 = +++)
90 (VIADLGLIRV; listed as Homo sapiens) [compound 90]	“+++” (>50 = +++)
91 (ILDLNTYNV; listed as Homo sapiens) [compound 91]	“+++” (>50 = +++)
92 (ILEPLNPLL; listed as Homo sapiens) [compound 92]	“+++” (>50 = +++)
93 (ILFNTQINI; listed as Homo sapiens) [compound 93]	“+++” (>50 = +++)
94 (ILFPLRFTL; listed as Homo sapiens) [compound 94]	“+++” (>50 = +++)
95 (ILGYMAHEHKV; listed as Homo sapiens) [compound 95]	“++” (>20% = ++)
97 (LLFATQITL; listed as Homo sapiens) [compound 97]	“++” (>20% = ++)
98 (SLIKYFLFV; listed as Homo sapiens) [compound 98]	“+” (>10% = +)
99 (ILIFHSVAL; listed as Homo sapiens) [compound 99]	“+++” (>50 = +++)
100 (ILNNEVFAI; listed as Homo sapiens) [compound 100]	“+++” (>50 = +++)
103 (KLGGTPAPA; listed as Homo sapiens) [compound 103]	“++” (>20% = ++)
104 (KLILLDTPLFL; listed as Homo sapiens) [compound 104]	“+++” (>50 = +++)
105 (KLMNDIADI; listed as Homo sapiens) [compound 105]	“++” (>20% = ++)
106 (FMASHLDYL; listed as Homo sapiens) [compound 106]	“+++” (>50 = +++)
107 (ILYNLYDLL; listed as Homo sapiens) [compound 107]	“+++” (>50 = +++)
108 (VIYTLIHYI; listed as Homo sapiens) [compound 108]	“+++” (>50 = +++)

Substance	Peptide Exchange (MHC class I binding score, peptide exchange yield)
109 (KLWEGLTELV; listed as Homo sapiens) [compound 109]	“+++” (>50 = +++)
110 (LLFDHLEPMEL; listed as Homo sapiens) [compound 110]	“+++” (>50 = +++)
111 (KLWNVAAPLYL; listed as Homo sapiens) [compound 111]	“+++” (>50 = +++)
113 (KVPAEEVLVAV; listed as Homo sapiens) [compound 113]	“+++” (>50 = +++)
115 (LLFDKLYLL; listed as Homo sapiens) [compound 115]	“+++” (>50 = +++)
116 (LLIGATMQV; listed as Homo sapiens) [compound 116]	“+++” (>50 = +++)
117 (LLILENILL; listed as Homo sapiens) [compound 117]	“+++” (>50 = +++)
118 (RLLILENILL; listed as Homo sapiens) [compound 118]	“+++” (>50 = +++)
119 (VLPAEFFEV; listed as Homo sapiens) [compound 119]	“+++” (>50 = +++)
120 (AIDAALTSV; listed as Homo sapiens) [compound 120]	“+++” (>50 = +++)
121 (RLYEITIEV; listed as Homo sapiens) [compound 121]	“++++” (>75% = ++++)
122 (LLIPVVPGV; listed as Homo sapiens) [compound 122]	“+++” (>50 = +++)
123 (LLLAEAELLTL; listed as Homo sapiens) [compound 123]	“++” (>20% = ++)
124 (LLLEETEKQAV; listed as Homo sapiens) [compound 124]	“+++” (>50 = +++)
125 (LLLEIGEVGKLFV; listed as Homo sapiens) [compound 125]	“+++” (>50 = +++)
126 (LLPEGGITAI; listed as Homo sapiens) [compound 126]	“+++” (>50 = +++)
127 (LLPTAPTTV; listed as Homo sapiens) [compound 127]	“+++” (>50 = +++)
128 (LLSEEEYHL; listed as Homo sapiens) [compound 128]	“+++” (>50 = +++)
